From patent publication US20230331821A1 (VIR BIOTECHNOLOGY, published 2023)
Read-outs that look alike come from different tables or passages of the source.

Columns and labels:
SARS1 Spike [1] = experiment: ELISA, antigen coated on the plate, OD 405 nm
SARS1 Spike [2] = experiment: ELISA, antigen coated on the plate, OD 405 nm; remark: listed apart in the source

B1: S110 (antibody, V domains shown)
VH: QVQLVESGGGLVQAGGSLRLSCAASGRTFSSAGMAWFRQAPGKEREFVATSNWNGGDTDYADSVKGRFTISRDNAKNTVYLQMNNLKPEDTAVYYCAAHLQKYGGDYYARIWGQGTQVTVS
SARS1 Spike [1]
  EC50 (read off the curve): ~0.03 mg/L
SARS1 Spike [2]
  EC50 (read off the curve): ~0.03 mg/L
